Experimental data reported in paper PMC10598209 (Nature Communications, 2023).
Numbering of substitutions follows the chain as printed. Names may count otherwise. One block for each binder: values may come before it.

Legend:
RSM, RECQ4(348-388) [1] = biological target: T1, RSM, RECQ4(348-388) (Homo sapiens, UniProt O94761); test: ITC; 70 mM KCl, pH 6.5, 30 C; FA: 25 mM KPO4 pH 6.5, 70 mM KCl (or 500 mM NaCl), 25 C; ITC: same low-salt buffer, 30 C; NMR dsDNA: 50 mM NaPO4 pH 6.0, 150 mM NaCl, 298 K; NMR G4: 25 mM KPO4; conditions: protein: recombinant, tags: N-terminal His6-TEV construct (pET-M11)
T1 chain: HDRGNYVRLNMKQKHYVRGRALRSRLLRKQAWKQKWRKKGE

sRSM, RECQ4(358-388) [2] = biological target: T2, sRSM, RECQ4(358-388) (Homo sapiens, UniProt O94761); test: stopped-flow/CD/NMR/light scattering global fit; Kd,1: initial 1:1 complex; FA: 25 mM KPO4 pH 6.5, 70 mM KCl (or 500 mM NaCl), 25 C; ITC: same low-salt buffer, 30 C; NMR dsDNA: 50 mM NaPO4 pH 6.0, 150 mM NaCl, 298 K; NMR G4: 25 mM KPO4; conditions: intramolecular parallel G4
T2 chain: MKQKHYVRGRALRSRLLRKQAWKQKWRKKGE

RECQ4(322-400) [3] = biological target: T3, RECQ4(322-400) (Homo sapiens, UniProt O94761 322-400); test: EMSA; profile indistinguishable from RSM and sRSM; FA: 25 mM KPO4 pH 6.5, 70 mM KCl (or 500 mM NaCl), 25 C; ITC: same low-salt buffer, 30 C; NMR dsDNA: 50 mM NaPO4 pH 6.0, 150 mM NaCl, 298 K; NMR G4: 25 mM KPO4; conditions: protein: recombinant; tags: N-terminal His6-TEV construct (pET-M11); label: 5' FITC on strand 1; blunt
T3 sequence: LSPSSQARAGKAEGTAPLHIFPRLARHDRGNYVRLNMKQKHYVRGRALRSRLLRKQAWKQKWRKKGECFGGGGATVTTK

RSM, RECQ4(348-388) [4] = biological target: T1, RSM, RECQ4(348-388); test: EMSA; FA: 25 mM KPO4 pH 6.5, 70 mM KCl (or 500 mM NaCl), 25 C; ITC: same low-salt buffer, 30 C; NMR dsDNA: 50 mM NaPO4 pH 6.0, 150 mM NaCl, 298 K; NMR G4: 25 mM KPO4; conditions: protein: recombinant; tags: N-terminal His6-TEV construct (pET-M11); label: 5' FITC on strand 1; blunt
sRSM, RECQ4(358-388) [5] = biological target: T2, sRSM, RECQ4(358-388); test: as above; conditions: label: 5' FITC on strand 1; blunt
RPA32C, RPA32(172−270) [6] = biological target: T4, RPA32C, RPA32(172−270) (human, UniProt P15927 172-270); test: NMR titration; 1H-15N HSQC of 50 or 100 μM 15N-labelled protein (RECQ4 or RPA) with step-wise addition or an excess of the unlabelled partner; buffer and temperature in Supplementary Table 6; conditions: both partners purified
T4 construct: Used 15N-labelled or unlabelled in NMR; unlabelled in ITC; also called RPA32C domain; source: E. coli BL21(DE3), purified (IMAC, TEV cleavage, second IMAC, Superdex 75); not shown: His6, N-terminal, cleaved

sRSM, RECQ4(358-388) [7] = biological target: T2, sRSM, RECQ4(358-388); test: NMR; largest CSP at 5'-end G-tetrad; FA: 25 mM KPO4 pH 6.5, 70 mM KCl (or 500 mM NaCl), 25 C; ITC: same low-salt buffer, 30 C; NMR dsDNA: 50 mM NaPO4 pH 6.0, 150 mM NaCl, 298 K; NMR G4: 25 mM KPO4; conditions: label: 5' FITC (FA); intramolecular hybrid G4
RSM 5E mutant = biological target: T5, RSM 5E mutant (Homo sapiens, UniProt O94761 348-388, R375E;K376E;K380E;K382E;R384E); test: NMR; binding not detectable, no droplets; FA: 25 mM KPO4 pH 6.5, 70 mM KCl (or 500 mM NaCl), 25 C; ITC: same low-salt buffer, 30 C; NMR dsDNA: 50 mM NaPO4 pH 6.0, 150 mM NaCl, 298 K; NMR G4: 25 mM KPO4; conditions: protein: recombinant; tags: N-terminal His6-TEV construct (pET-M11); label: 5' FITC (FA); intramolecular hybrid G4
T5 chain: T1 chain with R28E, K29E, K33E, K35E, R37E

RSM, RECQ4(348-388) [8] = biological target: T1, RSM, RECQ4(348-388); test: fluorescence anisotropy; low ionic strength (70 mM KCl); submicromolar; FA: 25 mM KPO4 pH 6.5, 70 mM KCl (or 500 mM NaCl), 25 C; ITC: same low-salt buffer, 30 C; NMR dsDNA: 50 mM NaPO4 pH 6.0, 150 mM NaCl, 298 K; NMR G4: 25 mM KPO4; conditions: protein: recombinant, tags: N-terminal His6-TEV construct (pET-M11)
RSM, RECQ4(348-388) [9] = biological target: T1, RSM, RECQ4(348-388); test: NMR; 300 mM NaCl, pH 6.0, 288 K; FA: 25 mM KPO4 pH 6.5, 70 mM KCl (or 500 mM NaCl), 25 C; ITC: same low-salt buffer, 30 C; NMR dsDNA: 50 mM NaPO4 pH 6.0, 150 mM NaCl, 298 K; NMR G4: 25 mM KPO4; conditions: protein: recombinant; tags: N-terminal His6-TEV construct (pET-M11); 10 bp duplex with unpaired TTTT arms (3' of strand 1, 5' of strand 2)
RPA32C, RPA32(172−270) [10] = biological target: T4, RPA32C, RPA32(172−270); test: NMR titration; 2D lineshape analysis (TITAN v1.6) of 1H-15N HSQC titrations of 50 μM 15N RSM with RPA32C (up to 16× excess) and dsDNA (up to 4× excess) and their competition; four titrations, 24 spectra, 16 residues fitted globally to a competitive binding model; conditions: both partners purified
RSM, RECQ4(348-388) [11] = biological target: T1, RSM, RECQ4(348-388); test: NMR 2D lineshape analysis (competition with RPA32C); 150 mM NaCl, pH 6.0, 298 K; kon 1.5e10 M-1 s-1; FA: 25 mM KPO4 pH 6.5, 70 mM KCl (or 500 mM NaCl), 25 C; ITC: same low-salt buffer, 30 C; NMR dsDNA: 50 mM NaPO4 pH 6.0, 150 mM NaCl, 298 K; NMR G4: 25 mM KPO4; conditions: protein: recombinant; tags: N-terminal His6-TEV construct (pET-M11); label: 5' FITC on strand 1 (FA); blunt
RECQ4(322-400) [12] = biological target: T3, RECQ4(322-400); test: NMR; only RSM residues affected; FA: 25 mM KPO4 pH 6.5, 70 mM KCl (or 500 mM NaCl), 25 C; ITC: same low-salt buffer, 30 C; NMR dsDNA: 50 mM NaPO4 pH 6.0, 150 mM NaCl, 298 K; NMR G4: 25 mM KPO4; conditions: protein: recombinant; tags: N-terminal His6-TEV construct (pET-M11); label: 5' FITC on strand 1 (FA); blunt
RSM, RECQ4(348-388) [13] = biological target: T1, RSM, RECQ4(348-388); test: fluorescence anisotropy; low ionic strength (70 mM KCl); FA: 25 mM KPO4 pH 6.5, 70 mM KCl (or 500 mM NaCl), 25 C; ITC: same low-salt buffer, 30 C; NMR dsDNA: 50 mM NaPO4 pH 6.0, 150 mM NaCl, 298 K; NMR G4: 25 mM KPO4; conditions: protein: recombinant, tags: N-terminal His6-TEV construct (pET-M11)
[14] = label: 5' FITC (FA), intramolecular hybrid G4

T4 sequence (P15927 172-270): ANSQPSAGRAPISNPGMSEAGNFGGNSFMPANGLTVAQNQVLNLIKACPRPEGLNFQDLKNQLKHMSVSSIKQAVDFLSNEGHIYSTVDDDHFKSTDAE

Binder: TTGGGTGGGTGGGTGGGT (structured_DNA) [T95-2T parallel G4]
- Kd (RSM, RECQ4(348-388) [1]; intramolecular parallel G4): 200 ± 80 nM
- Kd (sRSM, RECQ4(358-388) [2]): 3100 ± 200 nM

B1: ds49 (dsDNA)
DNA 1: AGCTACCATGCCTGCACGAATTAAGCAATTCGTAATCATGGTCATAGCT
DNA 2: AGCTATGACCATGATTACGAATTGCTTAATTCGTGCAGGCATGGTAGCT
- binding result (RECQ4(322-400) [3]): binds
- binding result (RSM, RECQ4(348-388) [4]): binds
- binding result (sRSM, RECQ4(358-388) [5]): binds

- binding result (RPA32C, RPA32(172−270) [6]): binds
B2: RECQ4(322–400) (domain or fragment, human, UniProt O94761 322-400, looked up)
chain: T3 sequence
notes: Used 15N-labelled or unlabelled in NMR; source: E. coli BL21(DE3), purified (IMAC, TEV cleavage, Mono S, Superdex 75); not shown: His6, N-terminal, cleaved

Binder: TTGGGTTAGGGTTAGGGTTAGGGA (structured_DNA) [HT hybrid G4]
- binding result (sRSM, RECQ4(358-388) [7]): binds
- binding result (RSM 5E mutant): no binding
- Kd (RSM, RECQ4(348-388) [8]; [14]): < 1000 nM
- Kd (RSM, RECQ4(348-388) [1]; [14]): 420 ± 140 nM

B3: splayed-arm Y14 (dsDNA)
DNA 1: CAGCGCTCGGTTTT
DNA 2: TTTTCCGAGCGCTG
- binding result (RSM, RECQ4(348-388) [9]): binds

Binder: AGGGGGGAGGGAGGGTGG (structured_DNA) [CEB1 parallel G4]
- Kd (RSM, RECQ4(348-388) [8]; label: 5' FITC or Cy3 (FA, EMSA), parallel G4): < 1000 nM

- Kd (RPA32C, RPA32(172−270) [10]): 117000 nM
- kon (RPA32C, RPA32(172−270) [10]): 2.4e+08 M⁻¹ s⁻¹
B4: RECQ4-specific motif (RSM), RECQ4(348–388) (domain or fragment, human, UniProt O94761 348-388, looked up)
chain: T1 chain
notes: H. sapiens RECQ4 residues 348-388 (RSM), cloned in pET-M11; Used 15N-labelled or unlabelled in NMR; unlabelled in ITC; source: E. coli BL21(DE3), purified (IMAC, TEV cleavage, Mono S, Superdex 75); not shown: His6, N-terminal, cleaved

- binding result (RPA32C, RPA32(172−270) [6]): binds
B5: RSM W379A/W383A (domain or fragment, human, UniProt O94761 348-388, looked up)
chain: T1 chain with W32A, W36A
notes: H. sapiens RECQ4 residues 348-388 with W379A and W383A, made from the RECQ4(348–388) expression vector; also called RSM double tryptophan mutant; source: E. coli BL21(DE3), purified; not shown: His6, N-terminal, cleaved

B6: ds10 (dsDNA)
DNA 1: CAGCGCTCGG
DNA 2: CCGAGCGCTG
- Kd (RSM, RECQ4(348-388) [11]): 6300 ± 600 nM
- binding result (RECQ4(322-400) [12]): binds
- Kd (RSM, RECQ4(348-388) [13]; label: 5' FITC on strand 1 (FA), blunt): ~1000 nM

Binder: CAGCGCTCGG (ssDNA) [ss10]
- Kd (RSM, RECQ4(348-388) [13]; label: 5' FITC (FA)): ~1000 nM
